Assay results reported in US20160184454A1, “RAB7L1 INTERACTS WITH LRRK2 TO MODIFY INTRANEURONAL PROTEIN SORTING AND PARKINSON'S DISEASE RISK” (THE TRUSTEES OF COLUMBIA UNIVERSITY IN THE CITY OF NEW YORK, priority 2013, published 2016).
One block for each molecule: values may come before it.

What was measured:
[1] = system: rat primary cortical neurons; assay: Neurite length assay in transfected primary cortical neuron cultures; format: cell-based; conditions: for LRRK2 mutation-induced neurite length phenotype: co-transfection with LRRK2 G2019S (0.5 μg/well), test vector 1 μg/well
Text: As 5 candidate genes are present within the PARK16 locus (SLC45A3, NUCKS, RAB7L1, SLC41A1, and PM20D1), each of the genes were experimentally screened for a functional interaction with LRRK2 (FIG. 2A). A previously-described primary rat neuron in vitro culture model was used, in which transient expression of familial PD-associated LRRK2 G2019S or R1441C mutant alleles leads to a marked reduction in neurite process length (MacLeod et al., 2006). […] RAB7L1 is a small cytosolic GTPase, structurally distinct from RAB7 despite its name (also known as RAB29) (Shimizu et al., 1997). […] But the function of RAB7L1 in CNS neurons remains unknown. Orthologues of RAB7L1 in other organisms, including C. elegans Glo-1 and Drosophila melanogaster Lighloid, have been implicated in trafficking to lysosome-related organelles (Hermann et al., 2005) and in the regulation of neurite process length (Grill et al., 2007), reminiscent of LRRK2 mutant phenotypes (MacLeod et al., 2006). Thus this gene was of particular interest.
Sprague-Dawley rat or mouse PI primary dissociated cortical cultures were prepared and transfected essentially as described (Xia et al., 1996) with the following modifications: cells were plated at high density, approximately 250,000 cells/cm2, in 24-well plates with 500 ul medium/well. Culture medium used for plating cells was Neurobasal-A supplemented with 2% B-27 and 10% FBS. At 1 day after plating, medium was changed to reduced serum (1% FBS+added antimitotic agents: 70 μM uridine and 25 μM 5-fluorodeoxyuridine) and replaced weekly thereafter; for transfections no DMSO was added to the transfection mixture, cells were not subjected to glycerol shock, and a total of 3 μg plasmid DNA was used per well. Cells were fixed in 4% PFA and immunostained with mouse α-RAB7L1 (Santa Cruz, 1:100), and rabbit monoclonal α-LRRK2 (Michal J. Fox Foundation MJFF4, 1:100), then with appropriate fluorescent secondaries (Jackson, 1:1000-2000). Neurite length and neurite puncta (defined as swellings greater than 2 um in diameter) were counted for at least 20 neurons per condition. Mean puncta number per neuron was normalized to total average neurite length versus wild-type LRRK2 transfected cells. Fluorescent microscopy was performed using a Nikon TE 2000-S microscope and a Zeiss LSM510 Meta confocal microscope. Images were analyzed using Image-Pro Plus (Mediacybernetics) software version 5.1.0.20.

[2] = system: Drosophila dopamine neurons; assay: Surviving dopaminergic neurons in PPM1 and PPL1 clusters of Drosophila CNS mushroom bodies; format: in vivo; conditions: co-expression with LRRK2 G2019S
LRRK2 = target: T1, LRRK2 (Homo sapiens, UniProt Q5S007); assay: Co-immunoprecipitation of LRRK2 and RAB7L1 from transfected HEK293T cells; format: binding; conditions: HEK293T lysates, 3×Flag-LRRK2 and GFP-RAB7L1, 48 hrs
T1 construct: Plasmids encoding full-length human LRRK2 (wild-type, G2019S, K1906M) tagged with 3×FLAG at the N-terminus were used; expressed in transfected cells; host or cells: HEK293T
Procedure: Next more direct evidence of a physical interaction between LRRK2 and RAB7L1 was sought and thus co-immunoprecipitation studies were performed. Epitope-tagged forms of LRRK2 and RAB7L1 (3×Flag-LRRK2 and GFP-RAB7L1) were co-transfected into HEK293T cells, and after 48 hrs, cell lysates were immunoprecipitated with an anti-Flag antibody and then probed for RAB7L1. […] Similarly, immunoprecipitation of RAB7L1 with an antibody to the GFP tag co-precipitated LRRK2 only in the presence of RAB7L1-GFP (FIG. 3B). To probe for an interaction between LRRK2 and RAB7L1 in a more physiological context, RAB7L1 protein was examined in brain lysates from transgenic mice that harbor human wild-type LRRK2 or a familial PD mutant form of LRRK2, R1441C, within a large bacterial artificial chromosome (BAC) construct. Transgenic LRRK2 is broadly expressed throughout the CNS of these mice, although at relatively low levels (FIG. 10A). Brain tissue lysates were immunoprecipitated for LRRK2 protein with a rabbit monoclonal antibody.
For cultured cells, HEK293T cells transfected for 48 hours were lysed with lysis buffer containing 0.5% Triton-X. 1 mM EDTA and protease inhibitor cocktail (Sigma). The lysates were rotated at 4° C. for 1 hr followed by centrifugation at 20,000 g for 5 min. […]

[3] = target: T2, human wild-type LRRK2 (BAC transgene, mouse brain) (human, UniProt Q5S007 1-2527); assay: immunoprecipitation of LRRK2 with a rabbit monoclonal antibody from transgenic mouse brain lysates, Western blot for RAB7L1
T2 construct: Untagged human LRRK2 expressed from a BAC construct in transgenic mice; It was immunoprecipitated from whole brain lysate with an anti-LRRK2 antibody; The lysate also holds endogenous mouse LRRK2; also called LRRK2 wild type transgenic (WT); LRRK2-WT
T2 sequence (Q5S007 whole entry R50H): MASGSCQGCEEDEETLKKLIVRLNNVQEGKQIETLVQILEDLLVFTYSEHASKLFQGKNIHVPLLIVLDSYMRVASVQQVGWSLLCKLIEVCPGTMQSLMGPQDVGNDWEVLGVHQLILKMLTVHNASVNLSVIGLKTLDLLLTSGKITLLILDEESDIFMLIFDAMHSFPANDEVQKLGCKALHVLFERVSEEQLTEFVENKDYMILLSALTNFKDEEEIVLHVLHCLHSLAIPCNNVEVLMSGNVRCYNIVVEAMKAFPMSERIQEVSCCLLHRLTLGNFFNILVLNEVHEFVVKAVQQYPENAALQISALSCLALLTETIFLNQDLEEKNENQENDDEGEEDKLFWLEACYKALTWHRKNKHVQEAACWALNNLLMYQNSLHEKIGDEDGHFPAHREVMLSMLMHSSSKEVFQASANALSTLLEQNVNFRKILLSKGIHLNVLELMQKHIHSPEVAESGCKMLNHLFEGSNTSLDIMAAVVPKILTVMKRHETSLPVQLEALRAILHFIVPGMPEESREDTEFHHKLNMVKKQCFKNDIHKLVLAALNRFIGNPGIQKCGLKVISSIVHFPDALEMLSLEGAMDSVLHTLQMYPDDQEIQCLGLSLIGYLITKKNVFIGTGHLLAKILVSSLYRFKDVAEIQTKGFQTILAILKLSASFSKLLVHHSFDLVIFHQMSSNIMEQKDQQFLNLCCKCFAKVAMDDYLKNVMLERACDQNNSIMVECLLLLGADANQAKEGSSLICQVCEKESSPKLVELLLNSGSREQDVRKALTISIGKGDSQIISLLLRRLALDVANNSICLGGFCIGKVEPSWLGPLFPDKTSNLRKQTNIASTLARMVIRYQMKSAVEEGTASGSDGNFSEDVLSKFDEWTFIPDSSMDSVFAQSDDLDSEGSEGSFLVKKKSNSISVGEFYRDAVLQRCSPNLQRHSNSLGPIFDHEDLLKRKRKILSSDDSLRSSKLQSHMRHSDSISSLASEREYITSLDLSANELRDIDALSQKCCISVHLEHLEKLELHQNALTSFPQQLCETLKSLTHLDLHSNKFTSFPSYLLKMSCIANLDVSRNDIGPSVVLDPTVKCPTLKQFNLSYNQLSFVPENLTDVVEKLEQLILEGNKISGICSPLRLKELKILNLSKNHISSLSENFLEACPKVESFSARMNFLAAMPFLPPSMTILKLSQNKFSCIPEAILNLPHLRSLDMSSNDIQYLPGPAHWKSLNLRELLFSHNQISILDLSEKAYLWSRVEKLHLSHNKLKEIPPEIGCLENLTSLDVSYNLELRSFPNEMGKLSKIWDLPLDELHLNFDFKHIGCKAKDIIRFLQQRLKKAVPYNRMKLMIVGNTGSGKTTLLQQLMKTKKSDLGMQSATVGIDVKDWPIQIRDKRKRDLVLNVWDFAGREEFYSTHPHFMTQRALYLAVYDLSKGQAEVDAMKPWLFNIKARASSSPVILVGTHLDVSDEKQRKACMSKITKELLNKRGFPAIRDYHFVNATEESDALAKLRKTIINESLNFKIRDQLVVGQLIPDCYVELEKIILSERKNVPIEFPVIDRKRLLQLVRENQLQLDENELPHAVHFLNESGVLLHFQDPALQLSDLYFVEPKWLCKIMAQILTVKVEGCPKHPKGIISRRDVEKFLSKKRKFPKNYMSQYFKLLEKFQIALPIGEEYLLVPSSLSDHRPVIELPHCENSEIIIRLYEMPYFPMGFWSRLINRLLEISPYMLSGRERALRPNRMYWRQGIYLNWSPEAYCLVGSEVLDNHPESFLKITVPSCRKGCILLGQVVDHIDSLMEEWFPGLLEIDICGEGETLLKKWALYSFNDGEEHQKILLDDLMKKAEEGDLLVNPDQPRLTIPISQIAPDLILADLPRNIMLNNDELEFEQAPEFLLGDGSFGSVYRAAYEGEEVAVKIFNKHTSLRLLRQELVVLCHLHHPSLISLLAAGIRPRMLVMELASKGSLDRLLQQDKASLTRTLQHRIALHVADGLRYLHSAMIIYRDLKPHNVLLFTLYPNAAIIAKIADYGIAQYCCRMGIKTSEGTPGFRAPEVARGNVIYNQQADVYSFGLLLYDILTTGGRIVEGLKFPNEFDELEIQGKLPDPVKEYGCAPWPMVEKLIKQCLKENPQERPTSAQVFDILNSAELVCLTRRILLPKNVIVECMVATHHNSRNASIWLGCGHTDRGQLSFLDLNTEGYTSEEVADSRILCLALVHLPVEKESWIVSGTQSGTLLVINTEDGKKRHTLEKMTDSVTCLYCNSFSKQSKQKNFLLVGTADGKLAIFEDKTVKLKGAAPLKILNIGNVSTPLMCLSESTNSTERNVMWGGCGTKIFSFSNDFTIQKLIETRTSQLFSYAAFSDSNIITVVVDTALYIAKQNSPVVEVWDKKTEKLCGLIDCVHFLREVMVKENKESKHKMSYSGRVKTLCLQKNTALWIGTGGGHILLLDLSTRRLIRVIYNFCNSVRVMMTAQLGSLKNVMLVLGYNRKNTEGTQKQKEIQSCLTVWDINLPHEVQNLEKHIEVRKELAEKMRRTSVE

[4] = system: primary rat cortical neurons; assay: MPR sorting / colocalization analysis (Golph4, LAMP2, EEA1) in primary neurons; format: cell-based; conditions: in the context of LRRK2 G2019S expression
Text: A cellular role for the LRRK2-RAB7L1 pathway was investigated. Prior studies have broadly implicated both of these gene products in intracellular sorting (Sakaguchi-Nakashima et al., 2007; Spano et al., 2011). Expression of the LRRK2 G2019S clinical mutation in rat primary neurons induced lysosomal swelling, as quantified by immunostaining for the lyosomal marker LAMP2 or using the lysosomotropic dye Lysotracker, consistent with prior work and other studies (Dodson et al., 2012; MacLeod et al., 2006; Stafa et al., 2012) (FIG. 6A). In addition to lysosomal enlargement, there was significant reduction in lysosomal accumulation of the cation-independent mannose 6-phosphate receptor (MPR) in terms of the fraction of LAMP2-positive structures stained with MPR. As MPR is required also for the recruitment of lysosomal hydrolases, its deficiency is predicted to lead to functional lysosomal deficits.
MPR is typically recycled between the endolysosome compartment and the Golgi apparatus by the retromer complex (Arighi et al., 2004; Bonifacino and Hurley, 2008; Seaman, 2009; St. George-Hyslop et al., 2009). […]
Primary rat cortical neurons were cultured on glass coverslips, transfected, and fixed as previously described in this methods section. […] Images were analysed using NIH ImageJ software version 1.45.

B1: CA RAB7L1: constitutively active RAB7L1 (Q67L, deficient in GTPase activity); in b298 the same words denote the fly transgene (protein, UniProt O14966 1-203, looked up, variant Q67L)
Ras-related protein Rab-7L1: MGSRDHLFKVLVVGDAAVGKTSLVQRYSQDSFSKHYKSTVGVDFALKVLQWSDYEIVRLQLWDIAGLERFTSMTRLYYRDASACVIMFDVTNATTFSNSQRWKQDLDSKLTLPNGEPVPCLLLANKCDLSPWAVSRDQIDRFSKENGFTGWTETSVKENKNINEAMRVLIEKMMRNSTEDIMSLSTQGDYINLQTKSSSWSCC
LRRK2 mutation-induced neurite length phenotype [1]: significantly suppressed
LRRK2 G2019S dopamine neuron loss phenotype [2]: rescued the LRRK2 G2019S dopamine neuron loss phenotype

co-immunoprecipitation with LRRK2 (LRRK2): effectively co-precipitated
binding result [3]: binds
B2: RAB7L1 protein in mouse brain lysate (endogenous) (enzyme, UniProt Q91YQ1 1-204, looked up)
chain: MGSRDHLFKVLVVGDAAVGKTSLVQRYSQDSFSKHYKSTVGVDFALKVLQWSDSEMVRLQLWDIAGQERFTSMTRLYYRDASACVIMFDVTNATTFSNSQRWKQDLDSKLTLPSGEPVPCLLLANKSDLSPWAVSRDQIDRFSKENGFTGWTETSVKENKNINEAMRVLVEKMMNNSREDVMSLSTQGNYINLQAKPSSGWTCC
notes: Detected by Western blot (Santa Cruz sc-81924) after LRRK2 immunoprecipitation
LRRK2 mutation-induced neurite length phenotype [1]: significantly suppressed the LRRK2 mutation-induced neurite length phenotype
reduced neurite length ([1]; in the context of VPS35 knockdown by shRNA): not rescued
neurite length ([1]; in the context of overexpression of wild-type LRRK2): did not modify neurite length
lysosomal phenotypes (swollen lysosomes, reduced lysosomal MPR) [4]: suppressed the lysosomal phenotypes
